In this assay the target is actin filaments (F-actin) assembled in vitro from DyLight-labeled actin and biotinylated actin (UniProt P68135). Description: TIRF microscopy of cofilin-EGFP on single actin filaments.

The substance “cofilin-EGFP (recombinant mouse cofilin tagged on its C terminus) (from UniProt P18760 1-166) (natural protein)” returned an average density of cofilin on stuck F-actin against that on mDia1(−) F-actin of 35 % lower.
